Test results from WO2022065344A1 (dated 2022).

T1: gp46 partial peptide 188-199 with H193 replaced by Ala (HTLV-1)
T1 peptide: PPLLPASNLDHI

T2: gp46 partial peptide 188-199 with P192 replaced by Ala (HTLV-1)
T2 peptide: PPLLAHSNLDHI

T3: gp46 partial peptide 188-199 with S194 replaced by Ala (HTLV-1)
T3 peptide: PPLLPHANLDHI

T4: gp46 partial peptide 188-199 with N195 replaced by Ala (HTLV-1)
T4 peptide: PPLLPHSALDHI

T5: gp46 partial peptide 188-199 with L191 replaced by Ala (HTLV-1)
T5 peptide: PPLAPHSNLDHI

T6: gp46 partial peptide 188-199 with L196 replaced by Ala (HTLV-1)
T6 peptide: PPLLPHSNADHI

T7: HTLV-1 envelope protein gp62 extracellular region (gp46), expressed in 293T cells together with GLUT1 (HTLV-1, UniProt P03381 21-312)
T7 construct: also called HTLV-1-expressing cells; gp62-expressing cells
T7 sequence: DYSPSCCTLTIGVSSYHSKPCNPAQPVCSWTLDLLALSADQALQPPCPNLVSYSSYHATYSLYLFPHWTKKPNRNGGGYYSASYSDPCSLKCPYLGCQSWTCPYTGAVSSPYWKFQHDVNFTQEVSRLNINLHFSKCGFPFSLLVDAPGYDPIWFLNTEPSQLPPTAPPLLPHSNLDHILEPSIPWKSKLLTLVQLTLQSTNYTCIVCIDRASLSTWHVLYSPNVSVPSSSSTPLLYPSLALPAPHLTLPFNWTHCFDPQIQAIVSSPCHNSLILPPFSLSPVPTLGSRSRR

T8: HTLV-1 gp46 peptide 180-204 (HTLV-1)
T8 construct: also called HTLV-1 gp46 peptide 180 to 204; gp46 antigen peptide
T8 peptide: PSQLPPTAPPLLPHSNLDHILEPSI

B1: rat anti-HTLV-1 monoclonal antibody rMAb1 (antibody, V domains shown)
VH: EIQLVESGGGLVQPGRSMKLSCEALGFTFGGFPMAWVRQAPTKGLEWVATISPGAVNTYYGDSVKGRFTISRDNAKSTLYLQMNSLRSEDTATYYCVREGYGFSSFEYWGQGVTVTVSP
VL: DIVMTQSPSSLAVSAGETVTIKCKSSQTLLYSGNQKNYLAWYQQKPGQSPKLLICWASTRQSSVPDRFIGSGSGTDFTLTISSVQAEDLAIYYCQQYFATPITFGSGTKLEIKR
B2: humanized anti-HTLV-1 antibody hMAb1_H1L12 (antibody, human IgG1, kappa, V domains shown)
VH: EVQLVESGGGLVQPGGSLRLSCAASGFTFGGFPMAWVRQAPGKGLEWVSTISPGAVNTYYADSVKGRFTISRDNSKNTLYLQMNSLRAEDTAVYYCAREGYGFSSFEYWGQGTLVTVSS
VL: DIQMTQSPSSLSASVGDRVTITCKSSQTLLYSGNQKNYLAWYQQKPGKAPKLLISWASTRQSGVPSRFSGSGSGTDFTLTISSLQPEDFATYYCQQYFATPITFGQGTKVEIKR
notes: Human IgG1, kappa
B3: rat anti-HTLV-1 monoclonal antibody rMAb98 (antibody, V domains shown)
VH: EVQLVESGGGLVQPGWSMKLSCAASGFTFSGSPMGWVRQAPTKGLEWVATISPTGATTYYRDSVKGRFTISRDNAKATLYLQMNSLRSEDTATYYCTREGYGYSSFDYWGQGVMVTVSS
VL: DIVMTQSPSSLAVSAGETVTINCKSSQSLLFSGYQKNYLAWYQQKPGQSPRLLIYWASTRQSGVPDRFIGSGSGTDFTLTVSSVQAEDVATYYCQQYFDTPLTFGSGTKLEIKR

Key:
[1] = biological target: T1, gp46 partial peptide 188-199 with H193 …; assay: ELISA on Ala-substituted gp46 188-199 peptides
[2] = biological target: T2, gp46 partial peptide 188-199 with P192 …; assay: ELISA on Ala-substituted gp46 188-199 peptides
[3] = biological target: T3, gp46 partial peptide 188-199 with S194 …; assay: ELISA on Ala-substituted gp46 188-199 peptides
[4] = biological target: T4, gp46 partial peptide 188-199 with N195 …; assay: ELISA on Ala-substituted gp46 188-199 peptides
[5] = biological target: T5, gp46 partial peptide 188-199 with L191 …; assay: ELISA on Ala-substituted gp46 188-199 peptides
[6] = biological target: T6, gp46 partial peptide 188-199 with L196 …; assay: ELISA on Ala-substituted gp46 188-199 peptides
[7] = biological target: T7, HTLV-1 envelope protein gp62 …; assay: flow cytometry on 293T cells transfected with HTLV-1 and GLUT1 vectors against pcDNA3.1 control cells
[8] = biological target: T8, HTLV-1 gp46 peptide 180-204; assay: SPR, Biacore T200, antibody amine-coupled on CM5 chip, peptide as analyte, affinity (steady-state) analysis

Binder | binding result [1] | binding result [2] | binding result [3] | binding result [4] | binding result [5] | binding result [6] | binding result [7] | Kd [8] [nM]
B1 | binds | binds | binds | binds | binds | binds | binds | 3.49
B2 | binds | binds | binds | binds | binds | binds |  | 
B3 |  |  |  |  |  |  | binds | 
